Measured values taken from patent US20050058645A1.

What was measured:
[1] = molecular target: T1, FLAG-tagged IL-4Rα-gp130 chimeric receptor; test: cell-based or functional assay
T1 sequence: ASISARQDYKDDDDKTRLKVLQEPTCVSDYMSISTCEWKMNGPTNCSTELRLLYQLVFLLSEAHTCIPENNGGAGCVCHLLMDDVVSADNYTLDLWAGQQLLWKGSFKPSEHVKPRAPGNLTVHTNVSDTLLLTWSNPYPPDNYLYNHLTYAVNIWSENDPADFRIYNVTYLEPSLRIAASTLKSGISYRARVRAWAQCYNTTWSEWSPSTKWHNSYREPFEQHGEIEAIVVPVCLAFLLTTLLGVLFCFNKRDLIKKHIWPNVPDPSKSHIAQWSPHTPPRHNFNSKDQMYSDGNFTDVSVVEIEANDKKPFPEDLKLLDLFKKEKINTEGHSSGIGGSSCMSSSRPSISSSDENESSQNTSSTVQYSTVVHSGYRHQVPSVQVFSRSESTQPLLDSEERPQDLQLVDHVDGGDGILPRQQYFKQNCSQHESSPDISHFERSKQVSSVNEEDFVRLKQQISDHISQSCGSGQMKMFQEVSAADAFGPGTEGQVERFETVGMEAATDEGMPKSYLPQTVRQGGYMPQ

[2] = molecular target: FLAG-tagged IL-13Rα1-gp130 chimeric receptor (human); test: cell-based or functional assay

Chain of IL-4 (species not stated) (ligand) (P05112 25-153): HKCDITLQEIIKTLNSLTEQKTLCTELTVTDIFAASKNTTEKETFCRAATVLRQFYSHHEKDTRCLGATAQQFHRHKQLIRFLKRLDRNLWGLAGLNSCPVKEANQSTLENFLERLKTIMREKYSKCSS

50% of maximal activity, STAT-3 luciferase reporter, lines 3.1.2 and 3.2.4 [1]	50% of maximal activity, STAT-3 luciferase reporter, lines 3.1.2 and 3.2.4 [2]	Substance
2 to 4 ng/mL	–	IL-4 (species not stated) (ligand)
–	100 to 200 pg/mL	IL-13 (species not stated) (ligand)
